Consider seven substances from US20190177411.

Data set [1] deals with recombinant Human Pyruvate Dehydrogenase E1-alpha subunit protein (Abcam) (UniProt P08559).
For data set [2], the system named is purified recombinant His-tagged PDK1 (Abcam).
Sequence of purified recombinant His-tagged PDK1 (Abcam) (chain, as listed by the source): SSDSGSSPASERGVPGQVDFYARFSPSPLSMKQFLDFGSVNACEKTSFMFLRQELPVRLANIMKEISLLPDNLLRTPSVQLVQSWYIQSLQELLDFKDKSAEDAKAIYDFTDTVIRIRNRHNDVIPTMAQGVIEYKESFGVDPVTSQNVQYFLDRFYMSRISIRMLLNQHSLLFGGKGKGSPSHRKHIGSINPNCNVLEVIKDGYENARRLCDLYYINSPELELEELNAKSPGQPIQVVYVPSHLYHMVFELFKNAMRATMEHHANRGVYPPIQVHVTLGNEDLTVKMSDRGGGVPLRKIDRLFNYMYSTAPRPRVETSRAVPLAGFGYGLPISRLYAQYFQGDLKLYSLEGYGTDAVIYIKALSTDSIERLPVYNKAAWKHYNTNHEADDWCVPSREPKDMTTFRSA

Sequence of recombinant Human Pyruvate Dehydrogenase E1-alpha subunit protein (Abcam) (P08559 30-390): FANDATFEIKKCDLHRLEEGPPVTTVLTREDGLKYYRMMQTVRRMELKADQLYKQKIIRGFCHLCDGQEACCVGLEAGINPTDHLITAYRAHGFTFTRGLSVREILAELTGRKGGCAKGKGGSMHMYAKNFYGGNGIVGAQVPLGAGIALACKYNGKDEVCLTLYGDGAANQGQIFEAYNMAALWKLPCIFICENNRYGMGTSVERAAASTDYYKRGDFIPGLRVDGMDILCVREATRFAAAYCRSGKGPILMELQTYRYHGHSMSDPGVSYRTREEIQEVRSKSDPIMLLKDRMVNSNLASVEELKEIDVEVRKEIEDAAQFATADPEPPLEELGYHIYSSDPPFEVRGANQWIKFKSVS
Sequence of purified recombinant His-tagged PDK4 (Abcam) (chain, as listed by the source): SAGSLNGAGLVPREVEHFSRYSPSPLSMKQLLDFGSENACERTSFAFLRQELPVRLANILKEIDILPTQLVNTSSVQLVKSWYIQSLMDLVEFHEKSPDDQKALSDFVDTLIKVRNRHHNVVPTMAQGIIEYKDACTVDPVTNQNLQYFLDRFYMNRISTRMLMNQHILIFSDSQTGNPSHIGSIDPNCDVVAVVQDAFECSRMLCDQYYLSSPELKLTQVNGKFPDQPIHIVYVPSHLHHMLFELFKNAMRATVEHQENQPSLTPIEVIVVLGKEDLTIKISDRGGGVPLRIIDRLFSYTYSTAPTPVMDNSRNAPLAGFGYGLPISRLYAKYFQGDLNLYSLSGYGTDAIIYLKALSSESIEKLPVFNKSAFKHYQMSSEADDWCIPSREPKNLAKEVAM
Sequence of Flag-tagged T346A PDK1 mutant (chain, as listed by the source T346A): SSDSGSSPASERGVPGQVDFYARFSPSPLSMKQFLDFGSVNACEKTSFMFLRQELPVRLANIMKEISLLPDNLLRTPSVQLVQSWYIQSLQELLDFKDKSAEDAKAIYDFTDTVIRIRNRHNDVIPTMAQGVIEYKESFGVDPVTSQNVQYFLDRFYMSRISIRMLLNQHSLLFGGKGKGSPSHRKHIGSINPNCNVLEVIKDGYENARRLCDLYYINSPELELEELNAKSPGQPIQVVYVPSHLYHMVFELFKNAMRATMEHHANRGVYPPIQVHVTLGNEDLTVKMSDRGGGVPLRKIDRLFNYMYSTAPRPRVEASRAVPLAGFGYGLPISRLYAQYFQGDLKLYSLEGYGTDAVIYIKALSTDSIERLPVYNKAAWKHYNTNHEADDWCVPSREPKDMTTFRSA

As for Flag-tagged T346A PDK1 mutant, the “PDHE1 phosphorylation by Flag immune complexes mixed with recombinant Akt2 and PDHE1, Western blotting” value in data set [1] is “T346A PDK1 mutant was ineffective”.
Regarding kinase active Akt1 (SignalChem), in data set [2], the “phosphorylation in a kinase assay, Western blotting with Akt cons Ab” value is given as “active Akt1 or Akt2 readily phosphorylated PDK1” and the “phosphorylation site by LC-MS/MS of chymotrypsin digests after a kinase assay” value is recorded as “Thr346 (T346) was identified ... as the sole phospho-amino acid modified by Akt1 or Akt2, compared to control”.
On to “purified recombinant His-tagged PDK2 (Abcam)”, for which, in data set [1], the “PDHE1 phosphorylation in a kinase assay with active Akt2, Western blotting” value was “increased PDHE1 phosphorylation was detected only in the presence of Akt2 and PDK1, but not PDK2, PDK3 or PDK4”.
Regarding “Flag-tagged wild type (WT) PDK1 phosphorylated on T346 (by active Akt2 in a kinase assay, or as precipitated from hypoxic PC3 cells)”, the “PDHE1 phosphorylation by Flag immune complexes mixed with recombinant Akt2 and PDHE1, Western blotting” value in data set [1] is recorded as “WT PDK1 phosphorylated PDHE1 in the presence of Akt2”.
As to “purified recombinant His-tagged PDK3 (Abcam)”, the “PDHE1 phosphorylation in a kinase assay with active Akt2, Western blotting” value in data set [1] was “increased PDHE1 phosphorylation was detected only in the presence of Akt2 and PDK1, but not PDK2, PDK3 or PDK4”.
On to “purified recombinant His-tagged PDK1 (Abcam)”, for which the “PDHE1 phosphorylation in a kinase assay with recombinant proteins, Western blotting” value in data set [1] is listed as “active Akt2 increased PDK1 phosphorylation of PDHE1”.
For “purified recombinant His-tagged PDK4 (Abcam)”, in data set [1], the “PDHE1 phosphorylation in a kinase assay with active Akt2, Western blotting” value was “increased PDHE1 phosphorylation was detected only in the presence of Akt2 and PDK1, but not PDK2, PDK3 or PDK4”.
